Results on three molecules are retold here after article PMC10613254 (2023).

As usually defined, the Kd is the concentration at which binding is half-saturated. A high value points to lower affinity.

Sequences and labels used below:
B1: Cort_(18-76) (domain or fragment)
chain: GADDWETDPDFVNDVSEKEQRWGAKTVQGSGHQEHINIHKLRENVFQEHQTLKEKELET
B2: Cort_(1-76), cortactin N-terminal acidic domain (NTA, residues 1-76) (domain or fragment)
chain: MWKASAGHAVSITQDDGGADDWETDPDFVNDVSEKEQRWGAKTVQGSGHQEHINIHKLRENVFQEHQTLKEKELET

For this assay, the target named is bovine brain Arp2/3 complex (bovine, UniProt P61157 1-418; A7MB62 1-394; Q58CQ2 1-372; Q3MHR7 1-300; Q3T035 1-178; Q148J6 …). Description: ITC.
In turn, MWKASAGHAVSITQDDGGADDWETDPDFVNDVS (domain or fragment) [Cort_(1-33)] registered a Kd of 5.4 µM.
Molecule B1 had a Kd of 2.2 µM.
On to B2, for which binding was characterised by a dissociation constant (Kd) of 4.5 µM.
